Laboratory results as given in paper PMC6736649.

How the values were obtained:
Experiment in all cases: ITC
[1] = molecular target: FEZ1_(92–198) (human) (UniProt Q99689)
[2] = molecular target: FEZ1_(92–198 182EA) (human) (UniProt Q99689)
[3] = molecular target: FEZ1_(178–188) (human)

Disulfide-crosslinked CA (A14C/E45C) hexamer (complex)
Kd [1]: 300 nM
stoichiometry N (CA hexamer to FEZ1) [1]: 1.3
stoichiometry N (CA hexamer to FEZ1) [2]: 1.6
Kd [3]: 180 nM
stoichiometry N (CA hexamer to FEZ1 (178–188)) [3]: 1
